Measured values from IntAct's records for PubMed 22797597.

B1: TRAF2 and NCK-interacting protein kinase (Homo sapiens), Q9UKE5 (parent)
chain: MASDSPARSLDEIDLSALRDPAGIFELVELVGNGTYGQVYKGRHVKTGQLAAIKVMDVTGDEEEEIKQEINMLKKYSHHRNIATYYGAFIKKNPPGMDDQLWLVMEFCGAGSVTDLIKNTKGNTLKEEWIAYICREILRGLSHLHQHKVIHRDIKGQNVLLTENAEVKLVDFGVSAQLDRTVGRRNTFIGTPYWMAPEVIACDENPDATYDFKSDLWSLGITAIEMAEGAPPLCDMHPMRALFLIPRNPAPRLKSKKWSKKFQSFIESCLVKNHSQRPATEQLMKHPFIRDQPNERQVRIQLKDHIDRTKKKRGEKDETEYEYSGSEEEEEENDSGEPSSILNLPGESTLRRDFLRLQLANKERSEALRRQQLEQQQRENEEHKRQLLAERQKRIEEQKEQRRRLEEQQRREKELRKQQEREQRRHYEEQMRREEERRRAEHEQEYIRRQLEEEQRQLEILQQQLLHEQALLLEYKRKQLEEQRQAERLQRQLKQERDYLVSLQHQRQEQRPVEKKPLYHYKEGMSPSEKPAWAKEVEERSRLNRQSSPAMPHKVANRISDPNLPPRSESFSISGVQPARTPPMLRPVDPQIPHLVAVKSQGPALTASQSVHEQPTKGLSGFQEALNVTSHRVEMPRQNSDPTSENPPLPTRIEKFDRSSWLRQEEDIPPKVPQRTTSISPALARKNSPGNGSALGPRLGSQPIRASNPDLRRTEPILESPLQRTSSGSSSSSSTPSSQPSSQGGSQPGSQAGSSERTRVRANSKSEGSPVLPHEPAKVKPEESRDITRPSRPASYKKAIDEDLTALAKELRELRIEETNRPMKKVTDYSSSSEESESSEEEEEDGESETHDGTVAVSDIPRLIPTGAPGSNEQYNVGMVGTHGLETSHADSFSGSISREGTLMIRETSGEKKRSGHSDSNGFAGHINLPDLVQQSHSPAGTPTEGLGRVSTHSQEMDSGTEYGMGSSTKASFTPFVDPRVYQTSPTDEDEEDEESSAAALFTSELLRQEQAKLNEARKISVVNVNPTNIRPHSDTPEIRKYKKRFNSEILCAALWGVNLLVGTENGLMLLDRSGQGKVYNLINRRRFQQMDVLEGLNVLVTISGKKNKLRVYYLSWLRNRILHNDPEVEKKQGWITVGDLEGCIHYKVVKYERIKFLVIALKNAVEIYAWAPKPYHKFMAFKSFADLQHKPLLVDLTVEEGQRLKVIFGSHTGFHVIDVDSGNSYDIYIPSHIQGNITPHAIVILPKTDGMEMLVCYEDEGVYVNTYGRITKDVVLQWGEMPTSVAYIHSNQIMGWGEKAIEIRSVETGHLDGVFMHKRAQRLKFLCERNDKVFFASVRSGGSSQVFFMTLNRNSMMNW

Variants of: B1
Settings: with STK26, Q9P289-1
Chain of STK26, Q9P289-1 (Q9P289 whole entry, looked up): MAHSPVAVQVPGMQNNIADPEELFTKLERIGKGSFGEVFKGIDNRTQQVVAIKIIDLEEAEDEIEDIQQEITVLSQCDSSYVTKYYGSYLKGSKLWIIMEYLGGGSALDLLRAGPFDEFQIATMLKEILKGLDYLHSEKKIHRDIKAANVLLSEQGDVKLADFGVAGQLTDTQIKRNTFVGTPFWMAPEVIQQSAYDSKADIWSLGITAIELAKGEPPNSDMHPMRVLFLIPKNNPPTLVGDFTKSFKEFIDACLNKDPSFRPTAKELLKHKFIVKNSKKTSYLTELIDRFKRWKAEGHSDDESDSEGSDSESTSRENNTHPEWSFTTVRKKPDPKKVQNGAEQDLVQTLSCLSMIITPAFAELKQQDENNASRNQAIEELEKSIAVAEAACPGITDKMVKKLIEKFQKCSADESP

| Variant | effect of a mutation on the interaction |
| --- | --- |
| R152A;D153A | increasing interaction strength |
| K54A | increasing interaction strength |
